Tested on: MS2 coat protein
Assay: apparent KD of MS2 coat protein; designed switch direction (-1 OFF switch, 1 ON switch): -1; higher = weaker reporter binding
In short: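 Designed RNA switches sharing common flanks were transcribed on Illumina chips by stalled E. coli RNA polymerase. They were titrated with SNAP-549-labelled MS2 coat protein, from 0.7 or 1.5 nM doubling to 3 µM, in Tris-HCl pH 7.5 buffer with KCl, MgCl2, BSA, DTT, tRNA and Tween-20. Titrations ran without input, with 200 uM small-molecule ligand, or with an oligonucleotide input. The apparent KD of each design is the median over its clusters, after curve-fitting of normalised cluster fluorescence.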

[1] = Eterna round: R95, input ligand: FMN 200 uM
[2] = Eterna round: R95, input ligand: microRNA oligo, concentration not stated
[3] = Eterna round: R95, input ligand: none
[4] = input ligand: microRNA oligo, concentration not stated

Sequence | apparent KD of MS2 coat protein [1] [µM] | apparent KD of MS2 coat protein [2] [µM] | apparent KD of MS2 coat protein [3] [µM] | apparent KD of MS2 coat protein (input ligand: FMN 200 uM) [µM] | apparent KD of MS2 coat protein (input ligand: none) [µM] | apparent KD of MS2 coat protein [4] [µM]
AGAAAUGCCCAUGGCCGCAAGCUUUUUGCUUGUCUUACCACAUGAGGAUCACCCAUGUGACAUGGGCUCCUGAUAAU [Bivequ] (puzzle: Sensor v3, turn-off variant 2) | 0.0137 | 0.0107 | 0.0121 | – | – | –
GGUGCGUUUGUGAGGAUAUGCUGGUCCUUGGAUCCGCAGAAGGCACAUGAGGAUCACCCAUGUGGUGUCGUACC [salish99_Bmod_Ex4_034] (puzzle: Brourd's mod of Exclusion 4) | – | 0.199 | – | – | – | –
GCACUGCGAGGAUAUACAUGAGGAUCACCCAUGUGUCGGCAGCCAUGCCAGUACAAAUGUAGAAGGCGCGUAAA [EX3 #55] (Eterna round: R97, puzzle: Exclusion 3) | – | – | – | 0.0881 | 0.027 | –
GUCAGCUCGUGAGGAUAUACAUCACUGCUUCGGCAGUGUAUUAAGAUCACAUGAGGAUCACCCAUGUAGAAGGUACGAGCUGAC [ENG2/2-C1] (Eterna round: R96, puzzle: Exclusion NG 2) | – | – | – | 0.18 | 0.0221 | 0.0215
GGAUCGAAUGUGAGGAUAUGCAGGUCCUUGGAUCUGCAGAAGGCACAUGAGGAUCACCCAUGUGAUACCGAUCC [Mat - Exclusion 4 - Eli Mod - D42] (Eterna round: R97, puzzle: Brourd's mod of Exclusion 4) | – | – | – | 0.148 | 0.455 | –
CCACUGCAUUGCAGUGUCGACAUGAGGAUCACCCAUGUGUCGCAGGCGCCGAGCUUUCCGCUCGUUACGUAUCGACG [Arorin] (Eterna round: R96, puzzle: Sensor v2, turn-off variant) | – | – | – | 0.0603 | 0.0607 | 0.0421
AGUUGGCGAGGAUAUACAUGAGGAUCACCCAUGUGAAGAAGAAGAGUGAGGAAGAAAAGUAGAAGGCGCUGACA [Mat - Exclusion 3 - Mod of Salish D38] (puzzle: Exclusion 3) | 0.0879 | 0.084 | 0.0507 | – | – | –
UUUUACAUGCUGAGAUCCUACAUGAGGAUCACCCAUGUGGUCCGGUGACGUGAGUCACCGGACUUAGCUCGUCUUGU [salish99_S_TOV1_R5_099] (Eterna round: R97, puzzle: Sensor, turn-off variant 1) | – | – | – | 0.186 | 0.304 | –
GACUAGGCAGGAUAUACAUGAGGAUCACCCAUGUGUCUGCGUUAAGCACGUGAAGACGGUAGAAGGGCCUUCAC [ChP 13.04.2015 #17] (puzzle: Exclusion 3) | – | 0.0103 | – | – | – | –
GGUCAUAGGUAAGGAUAUGAAGAUCUGGUGGUGACAUGAGGAUCACCCAUGUGAAAACGAUGAGAUCAGAAGGUACAAUAUGAA [AK ExNG2-4.1] (Eterna round: R96, puzzle: Exclusion NG 2) | – | – | – | 0.0727 | 0.0864 | 0.0491
AUAAUAAAGGAGGAUAUCGUAUCGGAAACGAUACGAGAAGGUCUAACAUGAGGAUCACCCAUGUUCCUCAAAUA [Mat - Exclusion 6 - Eli Mod - D49] (puzzle: Exclusion 6) | – | 0.0409 | – | – | – | –
GUCCUACAUGAGGAUCACCCAUGUAAGGAUAUGCUAGCGGUCGGAUGACUGACUGCUAGCAGAAGGUACAUGAU [Mat - Mod of JL D78] (puzzle: Exclusion 1) | – | 0.0155 | – | – | – | –
GGUCGUUUAGUGAGGAUAUGCAGCGUCAUAGCGCAGCAGAAGGCACAUGAGGAUCACCCAUGUCCUCCCAAAAG [Eternabot (L1) Solution 9] (Eterna round: R97, puzzle: Brourd's mod of Exclusion 4) | – | – | – | 0.253 | 0.0189 | –
UCUUAUUGCAAGGAUAUGCAAAUUAUUAUUAAAGCAGAAGGUGCAACAUGAGGAUCACCCAUGUUUCCGGGAAA [JR_E6_Sub040] (puzzle: Exclusion 6) | – | 0.025 | – | – | – | –
ACUGGAGCAGGAUAUGCAUUCGUGCUUCGGCACGUAAGGUCACAUGAGGAUCACCCAUGUAGAAGGGCUCCAGU [E2/6-D1] (Eterna round: R97, puzzle: Exclusion 2) | – | – | – | 0.0329 | 0.0197 | –
GAGGCAUGCCUAGGUCCACACAUGAGGAUCACCCAUGUAAUGACAGGCUUUUUACUCGUUUUAUCGCUAUCGCGUUC [Enaor] (puzzle: Sensor v3, turn-off variant 1) | 0.0132 | 0.0207 | 0.0118 | – | – | –
UAUUUGCAAGCGAGAUCCCACAUGAGGAUCACCCAUGUUCUUGGAAAGUACAGAAUUACUGUACAAGCUCGUCUUAU [Winner reversed engineered 32] (Eterna round: R97, puzzle: Sensor, turn-off variant 1) | – | – | – | 0.0221 | 0.0257 | –

Sequence | apparent KD of MS2 coat protein [1] [µM] | apparent KD of MS2 coat protein [2] [µM] | apparent KD of MS2 coat protein [3] [µM] | apparent KD of MS2 coat protein (input ligand: FMN 200 uM) [µM] | apparent KD of MS2 coat protein (input ligand: none) [µM] | apparent KD of MS2 coat protein [4] [µM]
CAAAUGGUUUAAGGAUAUUACAUGAGGAUCACCCAUGUUAUCGGGAUGCUUCUCUUAAAAUACGGUAAGAAGGUAGACCUAAUC [Ceveso] (Eterna round: R96, puzzle: Exclusion NG 2) | – | – | – | 0.451 | 0.0849 | 0.091
UGAUUUGGAGGAUAUACAUGAGGAUCACCCAUGUAAAGGCCGUGGGUCGAACCCGAGAGUAGAAGGUCGAGAGA [Eternabot (L1) Solution 30] (Eterna round: R97, puzzle: Exclusion 3) | – | – | – | 0.185 | 0.0917 | –
GUAUGUUAUGAGGAUAUCGGUGAACAUACACAUCGAGAAGGCAUGACAUGAGGAUCACCCAUGUCAAGGAUGUA [Exclusion 6 - B - 18:b] (puzzle: Exclusion 6) | 0.0255 | 0.0153 | 0.0208 | – | – | –
CUGUUCCAUGUAGGAUAUGCAUAUUCUCAUUAUGCAGAAGGACAUGAGGAUCACCCAUGUAUGUUAUUAUUAUAUGUUACAUGU [Design 3] (Eterna round: R96, puzzle: Exclusion NG 1) | – | – | – | 0.633 | 0.0649 | 0.0477
ACAUGACAGCUAGGAUAUAAAUGACAUGAGGAUCACCCAUGUUGUCCCAUGUUGAGGAUCACCCAUUAGAAGGAGCCACCCAUG [Exclusion NG2 S1] (Eterna round: R96, puzzle: Exclusion NG 2) | – | – | – | 0.0928 | 0.0853 | 0.0492
AAAAAGCGAGGAUAUGCAUAAGGACCCGGGAGGGAAGUCGAACAUGAGGAUCACCCAUGUAGAAGGCGCAAAAA [Exclss2-IV] (puzzle: Exclusion 2) | 0.016 | 0.0115 | 0.0154 | – | – | –
CUGAACCCGGUAGGAUAUAUUGUGGGCAAACAUGGAACAACAUGAGGAUCACCCAUGUAAUUUAGGUAGAAGGGCCAAAAGAUU [Excl-NG2-LRO07] (Eterna round: R96, puzzle: Exclusion NG 2) | – | – | – | 0.0779 | 0.0742 | 0.0504
AGUACUAUGCGUGCUGACAUGCGUAGUGCAGCAGGUGUUACAUGAGGAUCACCCAUGUCCUCAUUUGCUCGUCUUAA [Mat - Sensor v3 - Turn-off var 2 - D16] (puzzle: Sensor v3, turn-off variant 2) | 0.088 | 0.115 | 0.0976 | – | – | –
ACUCAGUGAGGAUAUCGCCAAAGAGCCGUAACGGCCUUUGAUGAGAAGGCACAUGAGGAUCACCCAUGUAAGCA [EX4 C.1] (Eterna round: R97, puzzle: Exclusion 4) | – | – | – | 0.387 | 0.122 | –
GAUCGACAUGAGGAUCACCCAUGUCAGGAUAUGCAACGGACAAAACGAUACGUCAUAGGUAGAAGGGACUGUCU [Eternabot (Original) Solution 2] (Eterna round: R97, puzzle: Exclusion 1) | – | – | – | 0.0184 | 0.0177 | –
GGGCCCGGAGGAUAUACAAUGCGCGCGCGAAAGUGUGUGUUACAUGAGGAUCACCCAUGUAGAAGGCCGGGCCC [-39.9, -36.7 kcal A 24%, 6,0] (Eterna round: R97, puzzle: Exclusion 2) | – | – | – | 0.0394 | 0.0167 | –
GAUGAGGUAGGAUAUACGAGAAGAUAGGGUAGAUAUAUAACACAUGAGGAUCACCCAUGUAGAAGGACCAGUAG [Mat - Exclusion 2 - Mod of my Tesla design - D71] (puzzle: Exclusion 2) | 0.0651 | 0.0364 | 0.0317 | – | – | –
CUGGUCCGAGGAUAUAUUAAGUGAUACAUGAGGAUCACCCAUGUAAUUUGAUGGAAAUAAAUAGAAGGCGGACUAG [Mat - Exclusion 5 - JL mod - D44] (puzzle: Exclusion 5) | 0.0342 | 0.0459 | 0.0534 | – | – | –
GACACCAAAGGAUAUACAUGAGGAUCACCCAUGUGCUGCAAAAGCUGAGCUCAAAUGUGUAGAAGGUUGAAAUA [Eternabot (Original) Solution 40] (Eterna round: R97, puzzle: Exclusion 3) | – | – | – | 0.039 | 0.0316 | –
AGAUUACGUUAGGAUAUCCGGCCUGACGAGGAUGGAGAAGGAGCGACAUGAGGAUCACCCAUGUGUGGCACUCC [Eternabot (L1) Solution 76] (Eterna round: R97, puzzle: Exclusion 6) | – | – | – | 0.0177 | 0.0183 | –
UAGGUACAUGAGGAUCACCCAUGUGAGGAUAUAGUUGAAGAUUGCGAGAGGGAGAGGACUAGAAGGCACAGUGG [JR_Exclu1_Sub037] (puzzle: Exclusion 1) | – | 0.0409 | – | – | – | –
GGAUCGAGUGUGAGGAUAUACCUAUGGAUACAUAGGUAGAAGGCACAUGAGGAUCACCCAUGUUCCAACGGUCC [Eli bmx4 4.11] (Eterna round: R97, puzzle: Brourd's mod of Exclusion 4) | – | – | – | 0.817 | 0.108 | –

Source: the supplement of paper PMC9170038
